Assay results published in PMC7615196, “PIM1 controls GBP1 activity to limit self-damage and to guard against pathogen infection” (Science (New York, N.Y.), 2023).
Positions count from the first letter of the chain named. In names and notes the source's numbering stands.

Tests used:
[1] = target: phosphorylated Flag-GBP1 (GBP1pS156) purified from THP-1ΔGBP1+Tet-Flag-GBP1 WT cells (human) (UniProt P32455); assay: co-IP; semi-quantitative co-immunoprecipitation: purified phosphorylated Flag-GBP1 bound to Flag(M2)-agarose beads, incubated with different concentrations of purified HA-14-3-3 proteins for 1 hour at 4°C in 25 mM HEPES pH 7.3, 100 mM NaCl, 0.01% Triton X-100, 5% glycerol, 1 mM DTT; blots …
[2] = target: endogenous GBP1 (IFNγ-treated THP-1 cells) (human (endogenous in THP-1)) (UniProt P32455); assay: cross-linking; GBP1 oligomerization assay: THP-1 cells (IFNγ±Dox; also ΔPIM1 or Δ14-3-3σ cells) lysed, GBP1 precipitated with CHAPS buffer, pellets cross-linked with 4 mM DSS for 30 minutes at room temperature, immunoblot
14-3-3β = 14-3-3β (UniProt P31946); assay: co-IP of Flag-GBP1 and HA-14-3-3; conditions: reference: wild type; sites S156
14-3-3γ = 14-3-3γ (UniProt P61981); assay: co-IP of Flag-GBP1 and HA-14-3-3; conditions: reference: wild type; sites S156
14-3-3ε = 14-3-3ε (UniProt P62258); assay: co-IP of Flag-GBP1 and HA-14-3-3; conditions: reference: wild type; sites S156
14-3-3ζ = 14-3-3ζ (UniProt P63104); assay: co-IP of Flag-GBP1 and HA-14-3-3; conditions: reference: wild type; sites S156
14-3-3η = 14-3-3η (UniProt Q04917); assay: co-IP of Flag-GBP1 and HA-14-3-3; conditions: reference: wild type; sites S156
14-3-3θ = 14-3-3θ (UniProt P27348); assay: co-IP of Flag-GBP1 and HA-14-3-3; conditions: reference: wild type; sites S156
14-3-3σ = 14-3-3σ (UniProt P31947); assay: co-IP of Flag-GBP1 and HA-14-3-3; conditions: reference: wild type; sites S156
[3] = target: recombinant GBP1 (non-phosphorylated) (human) (UniProt P32455); assay: SEC; GBP1 dimerization: samples without nucleotide or incubated with 1 mM GTP or 1 mM GDP + 10 mM AlF3; free GBP1 or phosphorylated, 14-3-3σ-bound GBP1
[4] = target: T1, phosphorylated Flag-GBP1 (GBP1pS156) purified from THP-1ΔGBP1+Tet-Flag-GBP1 WT cells (human, UniProt P32455 1-592, phosphoserine at 156); assay: GBP1 phosphorylated at S156; semi-quantitative co-IP
T1 chain: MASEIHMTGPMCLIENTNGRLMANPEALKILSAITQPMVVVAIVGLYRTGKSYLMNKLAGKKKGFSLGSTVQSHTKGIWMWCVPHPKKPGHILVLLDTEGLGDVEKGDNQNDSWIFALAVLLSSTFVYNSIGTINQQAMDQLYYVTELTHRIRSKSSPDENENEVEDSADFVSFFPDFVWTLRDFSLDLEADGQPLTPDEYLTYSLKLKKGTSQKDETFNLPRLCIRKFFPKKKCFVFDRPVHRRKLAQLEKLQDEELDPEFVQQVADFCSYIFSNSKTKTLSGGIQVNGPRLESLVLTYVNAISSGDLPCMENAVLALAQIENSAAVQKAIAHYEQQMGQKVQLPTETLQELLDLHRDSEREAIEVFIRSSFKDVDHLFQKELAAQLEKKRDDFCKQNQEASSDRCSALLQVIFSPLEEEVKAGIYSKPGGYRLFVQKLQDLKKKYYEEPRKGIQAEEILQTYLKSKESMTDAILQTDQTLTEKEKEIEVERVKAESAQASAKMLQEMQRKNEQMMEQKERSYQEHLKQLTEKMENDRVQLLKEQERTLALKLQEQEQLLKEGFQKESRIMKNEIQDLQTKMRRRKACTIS

[5] = target: the molecule itself; assay: cross-linking; GBP1 oligomerization assay: THP-1 cells (IFNγ±Dox; also ΔPIM1 or Δ14-3-3σ cells) lysed, GBP1 precipitated with CHAPS buffer, pellets cross-linked with 4 mM DSS for 30 minutes at room temperature, immunoblot
[6] = target: T2, in vitro phosphorylated recombinant GBP1 (human, UniProt P32455 1-592, phosphoserine at 156 (GBP1pS156); Ser569 and Thr590 also identified as sites phosphorylated by PIM1 in vitro)
T2 chain: T1 chain

[7] = target: T2, in vitro phosphorylated recombinant GBP1; assay: ITC; GBP1 phosphorylated at S156
[8] = target: the molecule itself; assay: cryo-EM structure; single particle cryo-EM of the SEC-purified phospho-GBP1:14-3-3σ complex; crystal structures docked as rigid bodies

HA-14-3-3σ (from UniProt P31947 1-248) (natural protein)
Kd [1]: 370 nM

endogenous GBP1 (IFNγ-treated THP-1 cells) (from UniProt P32455 1-592) (natural protein)
stoichiometry N [2]: 2

GBP1 (from UniProt P32455) S156A
binding against the reference (14-3-3β): lost
binding against the reference (14-3-3γ): lost
binding against the reference (14-3-3ε): lost
binding against the reference (14-3-3ζ): lost
binding against the reference (14-3-3η): lost
binding against the reference (14-3-3θ): lost
binding against the reference (14-3-3σ): lost

recombinant GBP1 (non-phosphorylated) (from UniProt P32455 1-592) (natural protein)
stoichiometry N [3]: 2

B1: HA-14-3-3θ (natural protein)
chain: MEKTELIQKAKLAEQAERYDDMATCMKAVTEQGAELSNEERNLLSVAYKNVVGGRRSAWRVISSIEQKTDTSDKKLQLIKDYREKVESELRSICTTVLELLDKYLIANATNPESKVFYLKMKGDYFRYLAEVACGDDRKQTIDNSQGAYQEAFDISKKEMQPTHPIRLGLALNFSVFYYEILNNPELACTLAKTAFDEAIAELDTLNEDSYKDSTLIMQLLRDNLTLWTSDSAGEECDAAEGAEN
Kd [4]: 1730 nM

B2: GBP1^S156A (Dox-inducible, THP-1ΔGBP1+GBP1^S156A cells) (natural protein, human, UniProt P32455 1-592, looked up)
chain: T1 chain with S156A
notes: pLenti-Tet-GBP1 mutated by site-directed mutagenesis; also called phosphodeficient GBP1; source: THP-1ΔGBP1+Tet-GBP1 S156A, Dox-induced, in lysate
stoichiometry N [5]: 2

B3: GBP1^R153A/P158A (14-3-3 binding motif mutant, Dox-inducible in THP-1ΔGBP1) (natural protein, human, UniProt P32455 1-592, looked up)
chain: T1 chain with R153A, P158A
notes: pLenti-Tet-GBP1 mutated by site-directed mutagenesis; source: THP-1ΔGBP1+Tet-GBP1 mutant, Dox-induced, in lysate
stoichiometry N [5]: 2

B4: GBP1^R151A/R153A/K155A (kinase motif mutant, Dox-inducible in THP-1ΔGBP1) (natural protein, human, UniProt P32455 1-592, looked up)
chain: T1 chain with R151A, R153A, K155A
notes: as for B3
stoichiometry N [5]: 2

B5: recombinant 14-3-3σ (natural protein, human, UniProt P31947 1-248, looked up)
chain: MERASLIQKAKLAEQAERYEDMAAFMKGAVEKGEELSCEERNLLSVAYKNVVGGQRAAWRVLSSIEQKSNEEGSEEKGPEVREYREKVETELQGVCDTVLGLLDSHLIKEAGDAESRVFYLKMKGDYYRYLAEVATGDDKKRIIDSARSAYQEAMDISKKEMPPTNPIRLGLALNFSVFHYEIANSPEEAISLAKTTFDEAMADLHTLSEDSYKDSTLIMQLLRDNLTLWTADNAGEEGGEAPQEPQS
notes: 14-3-3σ (stratifin), ORF from cDNA of IFNγ-primed THP-1 WT cells via pLenti-Tet-14-3-3σ into pET15d-6xHis-3C; homodimer in the cryo-EM map; also called SFN; YWHAS; source: E. coli BL21, purified (Ni-NTA, 3C cleavage, reverse Ni-IMAC, SEC); not shown: His6, N-terminal, cleaved
GTPase activity assay (rate of GTP hydrolysis, free phosphate by Malachite Green), 2 μM purified GBP1:14-3-3σ complex compared to free GBP1 [6]: > 8 fold
Kd [7]: 400 nM
stoichiometry N [8]: 2

B6: HA-14-3-3ζ (natural protein)
chain: MDKNELVQKAKLAEQAERYDDMAACMKSVTEQGAELSNEERNLLSVAYKNVVGARRSSWRVVSSIEQKTEGAEKKQQMAREYREKIETELRDICNDVLSLLEKFLIPNASQAESKVFYLKMKGDYYRYLAEVAAGDDKKGIVDQSQQAYQEAFEISKKEMQPTHPIRLGLALNFSVFYYEILNSPEKACSLAKTAFDEAIAELDTLSEESYKDSTLIMQLLRDNLTLWTSDTQGDEAEAGEGGEN
Kd [4]: 1120 nM

B7: HA-14-3-3γ (natural protein)
chain: MVDREQLVQKARLAEQAERYDDMAAAMKNVTELNEPLSNEERNLLSVAYKNVVGARRSSWRVISSIEQKTSADGNEKKIEMVRAYREKIEKELEAVCQDVLSLLDNYLIKNCSETQYESKVFYLKMKGDYYRYLAEVATGEKRATVVESSEKAYSEAHEISKEHMQPTHPIRLGLALNYSVFYYEIQNAPEQACHLAKTAFDDAIAELDTLNEDSYKDSTLIMQLLRDNLTLWTSDQQDDDGGEGNN
Kd [4]: 4200 nM

B8: HA-14-3-3η (natural protein)
chain: MGDREQLLQRARLAEQAERYDDMASAMKAVTELNEPLSNEDRNLLSVAYKNVVGARRSSWRVISSIEQKTMADGNEKKLEKVKAYREKIEKELETVCNDVLSLLDKFLIKNCNDFQYESKVFYLKMKGDYYRYLAEVASGEKKNSVVEASEAAYKEAFEISKEQMQPTHPIRLGLALNFSVFYYEIQNAPEQACLLAKQAFDDAIAELDTLNEDSYKDSTLIMQLLRDNLTLWTSDQQDEEAGEGN
Kd [4]: 6430 nM

B9: HA-14-3-3β (natural protein)
chain: MTMDKSELVQKAKLAEQAERYDDMAAAMKAVTEQGHELSNEERNLLSVAYKNVVGARRSSWRVISSIEQKTERNEKKQQMGKEYREKIEAELQDICNDVLELLDKYLIPNATQPESKVFYLKMKGDYFRYLSEVASGDNKQTTVSNSQQAYQEAFEISKKEMQPTHPIRLGLALNFSVFYYEILNSPEKACSLAKTAFDEAIAELDTLNEESYKDSTLIMQLLRDNLTLWTSENQGDEGDAGEGEN
Kd [4]: 2310 nM

B10: HA-14-3-3ε (natural protein)
chain: MDDREDLVYQAKLAEQAERYDEMVESMKKVAGMDVELTVEERNLLSVAYKNVIGARRASWRIISSIEQKEENKGGEDKLKMIREYRQMVETELKLICCDILDVLDKHLIPAANTGESKVFYYKMKGDYHRYLAEFATGNDRKEAAENSLVAYKAASDIAMTELPPTHPIRLGLALNFSVFYYEILNSPDRACRLAKAAFDDAIAELDTLSEESYKDSTLIMQLLRDNLTLWTSDMQGDGEEQNKEALQDVEDENQ
Kd [4]: 1860 nM
